Test results: paper PMC4220969, “Structural basis for the recognition of muramyltripeptide by Helicobacter pylori Csd4, a D,L-carboxypeptidase controlling the helical cell shape” (Acta Crystallographica Section D: Biological Crystallography, 2014)
Where no end group is shown, it is not given here. [ ]: non-standard residue; d: D form. The star is where a group is joined. FITC = O=C1OC2(c3ccc(O)cc3Oc3cc(O)ccc32)c2ccc(NC(=S)*)cc21

Columns and labels:
[1] = biological target: FITC-labelled dipeptide (FITC-L-Ala-D-Glu); experiment: fluorescence polarisation; FITC-labelled dipeptide at 9.2 nM, Csd5 titrated from 17.0 nM to 17.4 µM, 10 mM HEPES pH 7.5, 100 mM sodium chloride
Csd5 = biological target: T1, Csd5 (Helicobacter pylori, UniProt O25843); experiment: fluorescence polarization; assay type: binding; settings: labelled compound; 9.2 nM FITC-dipeptide, 10 mM HEPES pH 7.5, 100 mM NaCl
T1 construct: gene HP_1250

[2] = biological target: T2, Helicobacter pylori Csd4 (HP1075 in strain 26695), recombinant, residues Met22-Val438 (Helicobacter pylori strain 26695, UniProt O25708 22-438); experiment: SPR; Csd4 immobilised by amine coupling on a carboxymethyl dextran chip, Csd5 as analyte (0.25-2.00 µM), 10 mM HEPES pH 7.5, 100 mM sodium chloride, 25°C; BSA reference subtracted; settings: both partners purified
T2 construct: Csd4 (HP1075) from H. pylori strain 26695, residues Met22-Val438; the N-terminal 19 residues are a predicted signal peptide and are not in the construct; No cleavage of the tag is described; also called D,L-carboxypeptidase; source: E. coli Rosetta2(DE3), purified (HiTrap Chelating HP, HiTrap SP HP, Superdex 200)
T2 sequence (looked up): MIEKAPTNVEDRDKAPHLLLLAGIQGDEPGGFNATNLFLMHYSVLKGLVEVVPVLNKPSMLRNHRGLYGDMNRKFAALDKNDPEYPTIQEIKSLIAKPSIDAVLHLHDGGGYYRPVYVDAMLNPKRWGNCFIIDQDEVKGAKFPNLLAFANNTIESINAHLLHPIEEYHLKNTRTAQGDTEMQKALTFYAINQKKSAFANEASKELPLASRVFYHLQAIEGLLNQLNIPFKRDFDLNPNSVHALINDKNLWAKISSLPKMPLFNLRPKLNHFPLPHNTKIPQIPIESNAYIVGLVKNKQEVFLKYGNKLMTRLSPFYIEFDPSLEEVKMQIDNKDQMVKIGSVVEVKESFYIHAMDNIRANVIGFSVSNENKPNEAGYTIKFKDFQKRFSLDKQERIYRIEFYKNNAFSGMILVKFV

[3] = biological target: T2, Helicobacter pylori Csd4 (HP1075 in …); experiment: SPR; as a1, EDTA-treated Csd4-immobilised chip retreated with running buffer containing 5 mM calcium chloride; settings: both partners purified

## Helicobacter pylori Csd5 (HP1250 in strain 26695), N-terminal 40-residue-truncated construct, residues Ser41-Glu192 (from UniProt O25843 41-192) (domain or fragment)
[1]
  Kd: 1690 nM

## {FITC}-Ala-[dE]
Csd5
  Kd: ~1690 nM

B1: Helicobacter pylori Csd5 (HP1250 in strain 26695), N-terminal 40-residue-truncated construct, residues Ser41-Glu192 (domain or fragment, Helicobacter pylori strain 26695, UniProt O25843 41-192, looked up)
chain: SAPISPNVEKTETERQNGVLSPKQEEANATTTATEESPTKDTAPPLDTAAQKQETKQEQEKENEPKQDSVPPVQNNQKTPTTPLMGKKPLEYKVAVSGVNVRAFPSTKGKILGLLLKNKSVKVLEIQNDWAEIEFSHETKGYVFLKLLKKAE
notes: Csd5 (HP1250) from H. pylori strain 26695, residues Ser41-Glu192; lacks the predicted transmembrane region (Pro15-Val37); No cleavage of the tag is described; source: E. coli, overexpressed and purified essentially as Csd4 (gel filtration in 10 mM HEPES pH 7.5, 100 mM sodium chloride)
[2]
  Kd: ~4500 nM
[3]
  Kd: ~4300 nM
